In the supplement of paper PMC10065799, “High-throughput profiling of sequence recognition by tyrosine kinases and SH2 domains using bacterial peptide display” (eLife, 2023):

Target: Grb2 SH2 (UniProt P62993)
Assay: SH2 binding enrichment of the phosphorylated peptide, bacterial display (enrichment ratio); higher = better substrate or ligand; peptides without Tyr show the background
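For SH2 binding enrichment of the phosphorylated peptide, bacterial display in this document: peptide library displayed on the E. coli surface as eCPX fusions, selected cells deep-sequenced, score is each peptide's frequency after selection divided by its frequency in the input.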
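For phosphorylation enrichment, bacterial display in this document: 11-residue human phosphosite peptides and single-mutation variants displayed on the E. coli surface, counted by deep sequencing, each peptide's frequency after selection divided by its frequency in the unselected input library; frequency after pTyr selection over input frequency; kinase dosed for 20-30% of maximal phosphorylation in three min.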

Sequence of Grb2 SH2 (P62993 whole entry, looked up): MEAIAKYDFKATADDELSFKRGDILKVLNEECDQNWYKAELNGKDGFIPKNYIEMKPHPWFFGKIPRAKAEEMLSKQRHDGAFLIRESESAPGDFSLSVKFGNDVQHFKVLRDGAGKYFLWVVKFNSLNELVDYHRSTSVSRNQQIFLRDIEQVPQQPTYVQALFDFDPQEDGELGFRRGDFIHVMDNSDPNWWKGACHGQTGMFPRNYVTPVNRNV

Sequence	SH2 binding enrichment
CTTIHYNFMCT [TP53_Y234_N239T_YF]	2.04
TFHNTYHSHMR [IL1RAPL1_Y615_Q618H]	1.09
KATKGYLDDPT [G6PD_Y322_E317K]	0.888
ICANKYMVESC [RPL10_Y75_K78E]	0.913
GHEFIYVDPMQ [PDGFRA_Y574_YF]	0.821
MSGDVYSTDFF [NTRK2_Y702_R699G_YF]	0.701
PAEPRYRARQR [KCNJ11_Y26]	0.675
AKRKNYAPVTM [CFAP47_Y557_A561T]	1.03
TVNIRYLLFPS [SERAC1_Y548_S543T]	1.9
ESSKAYERDLS [TTC37_Y1074_A1077D]	0.681
RLCQDYDTIGP [ANK1_Y1073]	1.35
ELPQTYCVSGP [DYSF_Y1684_G1679E]	0.838
RCKNHYAAFSV [C1QTNF1_Y145_S143N]	1.98
SARFPYLMAEK [LDHB_Y173_R172P]	0.912
SKDQICPMKLK [RANBP17_Y823_Y823C]	1.08
LIDGYYRLTAD [JAK2_Y373]	0.72

Target: c-Src SH2
Assay: as above

Sequence	SH2 binding enrichment
CTTIHYNFMCT [TP53_Y234_N239T_YF]	1.66
TFHNTYHSHMR [IL1RAPL1_Y615_Q618H]	0.861
KATKGYLDDPT [G6PD_Y322_E317K]	0.489
ICANKYMVESC [RPL10_Y75_K78E]	0.675
GHEFIYVDPMQ [PDGFRA_Y574_YF]	0.563
MSGDVYSTDFF [NTRK2_Y702_R699G_YF]	0.526
PAEPRYRARQR [KCNJ11_Y26]	0.474
AKRKNYAPVTM [CFAP47_Y557_A561T]	1.19
TVNIRYLLFPS [SERAC1_Y548_S543T]	1.26
ESSKAYERDLS [TTC37_Y1074_A1077D]	0.471
RLCQDYDTIGP [ANK1_Y1073]	1.61
ELPQTYCVSGP [DYSF_Y1684_G1679E]	0.47
RCKNHYAAFSV [C1QTNF1_Y145_S143N]	1.67
SARFPYLMAEK [LDHB_Y173_R172P]	0.579
SKDQICPMKLK [RANBP17_Y823_Y823C]	0.744
LIDGYYRLTAD [JAK2_Y373]	4.65

Target: SHP2-C SH2
Assay: as above

Sequence	SH2 binding enrichment
CTTIHYNFMCT [TP53_Y234_N239T_YF]	1.99
TFHNTYHSHMR [IL1RAPL1_Y615_Q618H]	1.51
KATKGYLDDPT [G6PD_Y322_E317K]	0.84
ICANKYMVESC [RPL10_Y75_K78E]	0.861
GHEFIYVDPMQ [PDGFRA_Y574_YF]	0.661
MSGDVYSTDFF [NTRK2_Y702_R699G_YF]	1.15
PAEPRYRARQR [KCNJ11_Y26]	0.788
AKRKNYAPVTM [CFAP47_Y557_A561T]	1.16
TVNIRYLLFPS [SERAC1_Y548_S543T]	1.46
ESSKAYERDLS [TTC37_Y1074_A1077D]	0.715
RLCQDYDTIGP [ANK1_Y1073]	0.814
ELPQTYCVSGP [DYSF_Y1684_G1679E]	0.881
RCKNHYAAFSV [C1QTNF1_Y145_S143N]	1.7
SARFPYLMAEK [LDHB_Y173_R172P]	0.523
SKDQICPMKLK [RANBP17_Y823_Y823C]	0.586
LIDGYYRLTAD [JAK2_Y373]	9.03

Target: Fes (UniProt P07332)
Sequence (P07332 whole entry, looked up): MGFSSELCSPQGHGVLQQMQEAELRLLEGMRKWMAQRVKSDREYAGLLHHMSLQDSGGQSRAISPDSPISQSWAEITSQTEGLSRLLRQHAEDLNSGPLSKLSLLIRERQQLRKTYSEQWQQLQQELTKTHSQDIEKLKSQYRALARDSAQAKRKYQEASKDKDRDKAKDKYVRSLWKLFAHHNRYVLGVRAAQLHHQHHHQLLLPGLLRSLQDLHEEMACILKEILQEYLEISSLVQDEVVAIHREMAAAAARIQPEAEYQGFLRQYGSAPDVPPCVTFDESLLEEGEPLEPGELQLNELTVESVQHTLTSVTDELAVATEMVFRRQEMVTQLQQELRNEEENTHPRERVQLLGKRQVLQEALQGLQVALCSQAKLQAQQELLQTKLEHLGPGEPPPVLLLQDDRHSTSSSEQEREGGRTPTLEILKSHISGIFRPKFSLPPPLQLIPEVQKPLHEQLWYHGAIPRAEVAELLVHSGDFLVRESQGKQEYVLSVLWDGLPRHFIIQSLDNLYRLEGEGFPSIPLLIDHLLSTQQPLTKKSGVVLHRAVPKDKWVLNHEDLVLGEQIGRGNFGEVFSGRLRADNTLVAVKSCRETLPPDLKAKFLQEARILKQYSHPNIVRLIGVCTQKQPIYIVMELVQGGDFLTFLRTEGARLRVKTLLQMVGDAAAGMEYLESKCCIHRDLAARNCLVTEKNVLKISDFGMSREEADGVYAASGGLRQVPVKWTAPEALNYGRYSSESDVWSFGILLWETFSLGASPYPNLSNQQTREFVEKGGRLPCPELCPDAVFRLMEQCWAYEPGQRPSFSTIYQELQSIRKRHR
Assay: phosphorylation enrichment, bacterial display (enrichment ratio); higher = better substrate or ligand; peptides without Tyr show the background

Sequence	phosphorylation enrichment
CTTIHYNFMCT [TP53_Y234_N239T_YF]	1.01
TFHNTYHSHMR [IL1RAPL1_Y615_Q618H]	0.884
KATKGYLDDPT [G6PD_Y322_E317K]	0.639
ICANKYMVESC [RPL10_Y75_K78E]	1.14
GHEFIYVDPMQ [PDGFRA_Y574_YF]	0.986
MSGDVYSTDFF [NTRK2_Y702_R699G_YF]	1.06
PAEPRYRARQR [KCNJ11_Y26]	0.718
AKRKNYAPVTM [CFAP47_Y557_A561T]	0.518
TVNIRYLLFPS [SERAC1_Y548_S543T]	1.21
ESSKAYERDLS [TTC37_Y1074_A1077D]	0.771
RLCQDYDTIGP [ANK1_Y1073]	1.44
ELPQTYCVSGP [DYSF_Y1684_G1679E]	0.816
RCKNHYAAFSV [C1QTNF1_Y145_S143N]	0.749
SARFPYLMAEK [LDHB_Y173_R172P]	0.687
SKDQICPMKLK [RANBP17_Y823_Y823C]	0.781
LIDGYYRLTAD [JAK2_Y373]	2.59

Test system: AncSZ
Assay: as above

Sequence	phosphorylation enrichment
CTTIHYNFMCT [TP53_Y234_N239T_YF]	1.06
TFHNTYHSHMR [IL1RAPL1_Y615_Q618H]	0.529
KATKGYLDDPT [G6PD_Y322_E317K]	0.73
ICANKYMVESC [RPL10_Y75_K78E]	0.982
GHEFIYVDPMQ [PDGFRA_Y574_YF]	1.85
MSGDVYSTDFF [NTRK2_Y702_R699G_YF]	1.08
PAEPRYRARQR [KCNJ11_Y26]	1.02
AKRKNYAPVTM [CFAP47_Y557_A561T]	0.459
TVNIRYLLFPS [SERAC1_Y548_S543T]	1.21
ESSKAYERDLS [TTC37_Y1074_A1077D]	0.735
RLCQDYDTIGP [ANK1_Y1073]	1.88
ELPQTYCVSGP [DYSF_Y1684_G1679E]	0.791
RCKNHYAAFSV [C1QTNF1_Y145_S143N]	0.538
SARFPYLMAEK [LDHB_Y173_R172P]	0.604
SKDQICPMKLK [RANBP17_Y823_Y823C]	0.825
LIDGYYRLTAD [JAK2_Y373]	2.46

Target: Hck (UniProt P08631)
Sequence (P08631 whole entry, looked up): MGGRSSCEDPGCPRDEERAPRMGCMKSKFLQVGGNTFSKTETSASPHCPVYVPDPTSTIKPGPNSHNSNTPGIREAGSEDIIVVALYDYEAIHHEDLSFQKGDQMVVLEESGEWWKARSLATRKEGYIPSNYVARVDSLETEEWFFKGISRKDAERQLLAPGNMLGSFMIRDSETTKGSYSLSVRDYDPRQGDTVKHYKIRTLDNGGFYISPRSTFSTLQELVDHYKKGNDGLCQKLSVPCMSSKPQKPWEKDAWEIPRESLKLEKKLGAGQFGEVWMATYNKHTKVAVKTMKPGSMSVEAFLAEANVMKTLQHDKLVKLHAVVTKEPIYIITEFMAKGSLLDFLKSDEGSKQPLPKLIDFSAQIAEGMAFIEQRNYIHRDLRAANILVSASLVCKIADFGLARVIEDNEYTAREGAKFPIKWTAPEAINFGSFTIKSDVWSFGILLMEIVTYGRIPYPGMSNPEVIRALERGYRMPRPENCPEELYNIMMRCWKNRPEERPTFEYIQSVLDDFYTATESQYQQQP
Assay: as above

Sequence	phosphorylation enrichment
CTTIHYNFMCT [TP53_Y234_N239T_YF]	0.501
TFHNTYHSHMR [IL1RAPL1_Y615_Q618H]	0.667
KATKGYLDDPT [G6PD_Y322_E317K]	0.417
ICANKYMVESC [RPL10_Y75_K78E]	0.574
GHEFIYVDPMQ [PDGFRA_Y574_YF]	2.96
MSGDVYSTDFF [NTRK2_Y702_R699G_YF]	2.4
PAEPRYRARQR [KCNJ11_Y26]	0.878
AKRKNYAPVTM [CFAP47_Y557_A561T]	0.371
TVNIRYLLFPS [SERAC1_Y548_S543T]	0.574
ESSKAYERDLS [TTC37_Y1074_A1077D]	0.456
RLCQDYDTIGP [ANK1_Y1073]	1.61
ELPQTYCVSGP [DYSF_Y1684_G1679E]	0.435
RCKNHYAAFSV [C1QTNF1_Y145_S143N]	0.615
SARFPYLMAEK [LDHB_Y173_R172P]	0.422
SKDQICPMKLK [RANBP17_Y823_Y823C]	0.573
LIDGYYRLTAD [JAK2_Y373]	1.87

Target: FGFR1 (UniProt P11362)
Sequence (P11362 whole entry, looked up): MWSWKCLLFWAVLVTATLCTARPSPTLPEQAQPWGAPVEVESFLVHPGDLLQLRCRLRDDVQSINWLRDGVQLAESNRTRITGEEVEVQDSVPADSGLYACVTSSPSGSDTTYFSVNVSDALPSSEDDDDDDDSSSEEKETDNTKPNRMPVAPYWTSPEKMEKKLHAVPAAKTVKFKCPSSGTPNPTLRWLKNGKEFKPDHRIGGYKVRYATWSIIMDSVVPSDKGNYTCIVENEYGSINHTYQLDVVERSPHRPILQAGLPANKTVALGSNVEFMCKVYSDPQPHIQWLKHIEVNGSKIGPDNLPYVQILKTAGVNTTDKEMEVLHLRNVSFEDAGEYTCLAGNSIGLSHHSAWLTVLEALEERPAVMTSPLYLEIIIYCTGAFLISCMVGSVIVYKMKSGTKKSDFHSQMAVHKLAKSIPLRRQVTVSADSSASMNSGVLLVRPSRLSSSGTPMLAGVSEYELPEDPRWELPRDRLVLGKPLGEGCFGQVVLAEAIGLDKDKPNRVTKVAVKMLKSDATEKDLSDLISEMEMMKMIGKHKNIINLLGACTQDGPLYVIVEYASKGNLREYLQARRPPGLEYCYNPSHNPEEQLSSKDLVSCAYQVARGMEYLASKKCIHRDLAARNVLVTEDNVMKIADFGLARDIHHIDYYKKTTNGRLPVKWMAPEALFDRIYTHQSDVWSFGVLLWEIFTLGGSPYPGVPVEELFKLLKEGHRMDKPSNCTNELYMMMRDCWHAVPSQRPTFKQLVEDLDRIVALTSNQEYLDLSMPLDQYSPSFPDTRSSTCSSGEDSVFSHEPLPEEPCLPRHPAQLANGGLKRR
Assay: as above

Sequence	phosphorylation enrichment
CTTIHYNFMCT [TP53_Y234_N239T_YF]	0.538
TFHNTYHSHMR [IL1RAPL1_Y615_Q618H]	0.67
KATKGYLDDPT [G6PD_Y322_E317K]	0.529
ICANKYMVESC [RPL10_Y75_K78E]	0.596
GHEFIYVDPMQ [PDGFRA_Y574_YF]	10.8
MSGDVYSTDFF [NTRK2_Y702_R699G_YF]	1.42
PAEPRYRARQR [KCNJ11_Y26]	0.576
AKRKNYAPVTM [CFAP47_Y557_A561T]	0.418
TVNIRYLLFPS [SERAC1_Y548_S543T]	0.578
ESSKAYERDLS [TTC37_Y1074_A1077D]	0.384
RLCQDYDTIGP [ANK1_Y1073]	0.541
ELPQTYCVSGP [DYSF_Y1684_G1679E]	0.417
RCKNHYAAFSV [C1QTNF1_Y145_S143N]	0.488
SARFPYLMAEK [LDHB_Y173_R172P]	0.387
SKDQICPMKLK [RANBP17_Y823_Y823C]	0.595
LIDGYYRLTAD [JAK2_Y373]	11.5

Test system: c-Abl (mouse)
Assay: as above

Sequence	phosphorylation enrichment
CTTIHYNFMCT [TP53_Y234_N239T_YF]	0.839
TFHNTYHSHMR [IL1RAPL1_Y615_Q618H]	0.538
KATKGYLDDPT [G6PD_Y322_E317K]	0.451
ICANKYMVESC [RPL10_Y75_K78E]	0.657
GHEFIYVDPMQ [PDGFRA_Y574_YF]	6.67
MSGDVYSTDFF [NTRK2_Y702_R699G_YF]	0.736
PAEPRYRARQR [KCNJ11_Y26]	0.737
AKRKNYAPVTM [CFAP47_Y557_A561T]	0.454
TVNIRYLLFPS [SERAC1_Y548_S543T]	0.716
ESSKAYERDLS [TTC37_Y1074_A1077D]	0.533
RLCQDYDTIGP [ANK1_Y1073]	0.964
ELPQTYCVSGP [DYSF_Y1684_G1679E]	0.633
RCKNHYAAFSV [C1QTNF1_Y145_S143N]	0.72
SARFPYLMAEK [LDHB_Y173_R172P]	0.361
SKDQICPMKLK [RANBP17_Y823_Y823C]	0.632
LIDGYYRLTAD [JAK2_Y373]	1
